Reference: article doi:10.1101/2024.08.09.607165

Tests used:
[1] = target: TraT encoded by the F plasmid derivative pOX38 (TraTF), mature protein C21-L244 (E. coli (F plasmid, pOX38)); experiment: cryo-EM structure
[2] = target: TraT encoded by pKpQIL (TraT_(pKpQIL)), mature protein C36-L258 (K. pneumoniae (plasmid pKpQIL)); experiment: cryo-EM structure

TraT encoded by the F plasmid derivative pOX38 (TraTF), mature protein C21-L244 (natural protein)
stoichiometry N [1]: 10

TraT encoded by pKpQIL (TraT_(pKpQIL)), mature protein C36-L258 (natural protein)
stoichiometry N [2]: 10
